For one substance, stoichiometry N results are on record in publication PMC3491091.

As usually defined, the stoichiometry N is a count of units in the complex or per binding partner.

In this test the target is soybean trypsin inhibitor (soybean) (UniProt P01070). As to the kind of experiment: SPR + ITC + AUC + fluorescence polarisation. (In general: Fluorescence polarisation rises when a labelled molecule tumbles more slowly, as on binding a larger partner.)

Regarding α-chymotrypsin (enzyme), the stoichiometry N is 2.
